Reference: patent US20260265379A1

B1: bsAb052 (bispecific antibody, not shown: small tags and cut ends; a dimerising Fc or GST)
heavy (part 1 of 2): QVQLVQSGAEVKKPGASVKLSCKASGYIFTRYYMYWVKQRPGQGLEWIGEINPNNGGTKFNEKFKNRATLTVDKSISTAYMELSRLRSDDTAVYYCSREDDYDGTPFAMDYWGQGTLVTVSS
heavy (part 2 of 2): GGGGSGGGGSGGGGSGGGGSQVQLVQSGVEVKKPGASVKVSCKASGYTFTNYYMYWVRQAPGQGLEWMGGINPSNGGTNFNEKFKNRVTLTTDSSTTTAYMELKSLQFDDTAVYYCARRDYRFDMGFDYWGQGTTVTVSSGGGGSGGGGSGGGGSGGGGSEIVLTQSPATLSLSPGERATLSCRASKGVSTSGYSYLHWYQQKPGQAPRLLIYLASYLESGVPARFSGSGSGTDFTLTISSLEPEDFAVYYCQHSRDLPLTFGGGTKVEIK
heavy: B1 heavy (part 2 of 2)
light: not shown
B2: bsAb056 (bispecific antibody, not shown: a dimerising Fc or GST; small tags and cut ends)
heavy 1: B1 heavy (part 2 of 2)
heavy 2: B1 heavy (part 1 of 2)
light: not shown
B3: bsAb061 (bispecific antibody)
heavy: QVQLVQSGAEVKKPGASVKLSCKASGYIFTRYYMYWVKQRPGQGLEWIGEINPNNGGTKFNEKFKNRATLTVDKSISTAYMELSRLRSDDTAVYYCSREDDYDGTPFAMDYWGQGTLVTVSSASTKGPSVFPLAPSSKSTSGGTAALGCLVKDYFPEPVTVSWNSGALTSGVHTFPAVLQSSGLYSLSSVVTVPSSSLGTQTYICNVNHKPSNTKVDKRVEPKSCDKTHTCPPCPAPEFEGGPSVFLFPPKPKDTLMISRTPEVTCVVVDVSHEDPEVKFNWYVDGVEVHNAKTKPREEQYNSTYRVVSVLTVLHQDWLNGKEYKCKVSNKALPASIEKTISKAKGQPREPQVYTLPPSREEMTKNQVSLTCLVKGFYPSDIAVEWESNGQPENNYKTTPPVLDSDGSFFLYSKLTVDKSRWQQGNVFSCSVMHEALHNHYTQKSLSLSPG
light: not shown
B4: bsAb062 (bispecific antibody)
heavy: B3 heavy
light: not shown
B5: bsAb031 (bispecific antibody)
heavy: not shown
light: EIVLTQSPATLSLSPGERATLSCRASKGVSTSGYSYLHWYQQKPGQAPRLLIYLASYLESGVPARFSGSGSGTDFTLTISSLEPEDFAVYYCQHSRDLPLTFGGGTKVEIKRTVAAPSVFIFPPSDEQLKSGTASVVCLLNNFYPREAKVQWKVDNALQSGNSQESVTEQDSKDSTYSLSSTLTLSKADYEKHKVYACEVTHQGLSSPVTKSFNRGEC
B6: bsAb002 (bispecific antibody)
heavy: QVQLVQSGVEVKKPGASVKVSCKASGYTFTNYYMYWVRQAPGQGLEWMGGINPSNGGTNFNEKFKNRVTLTTDSSTTTAYMELKSLQFDDTAVYYCARRDYRFDMGFDYWGQGTTVTVSSASTKGPSVFPLAPSSKSTSGGTAALGCLVKDYFPEPVTVSWNSGALTSGVHTFPAVLQSSGLYSLSSVVTVPSSSLGTQTYICNVNHKPSNTKVDKRVEPKSCDKTHTCPPCPAPEFEGGPSVFLFPPKPKDTLMISRTPEVTCVVVDVSHEDPEVKFNWYVDGVEVHNAKTKPREEQYNSTYRVVSVLTVLHQDWLNGKEYKCKVSNKALPASIEKTISKAKGQPREPQVYTLPPSREEMTKNQVSLTCLVKGFYPSDIAVEWESNGQPENNYKTTPPVLDSDGSFFLYSKLTVDKSRWQQGNVFSCSVMHEALHNHYTQKSLSLSPGGGGGSGGGGSGGGGSGGGGSQVQLVQSGAEVKKPGASVKLSCKASGYIFTRYYMYWVKQRPGQGLEWIGEINPNNGGTKFNEKFKNRATLTVDKSISTAYMELSRLRSDDTAVYYCSREDDYDGTPFAMDYWGQGTLVTVSSGGGGSGGGGSGGGGSGGGGSDIQMTQSPSSLSASVGDRVTITCHASQNINVWLSWYQQKPGKAPKLLIYKASNLHTGVPSRFTGSGSGTDFTFTISSLQPEDIATYYCQQGQTYPYTFGQGTKLEIK
light: B5 light
B7: bsAb006 (bispecific antibody)
heavy: QVQLVQSGVEVKKPGASVKVSCKASGYTFTNYYMYWVRQAPGQGLEWMGGINPSNGGTNFNEKFKNRVTLTTDSSTTTAYMELKSLQFDDTAVYYCARRDYRFDMGFDYWGQGTTVTVSSASTKGPSVFPLAPSSKSTSGGTAALGCLVKDYFPEPVTVSWNSGALTSGVHTFPAVLQSSGLYSLSSVVTVPSSSLGTQTYICNVNHKPSNTKVDKRVEPKSCDKTHTCPPCPAPEFEGGPSVFLFPPKPKDTLMISRTPEVTCVVVDVSHEDPEVKFNWYVDGVEVHNAKTKPREEQYNSTYRVVSVLTVLHQDWLNGKEYKCKVSNKALPASIEKTISKAKGQPREPQVYTLPPSREEMTKNQVSLTCLVKGFYPSDIAVEWESNGQPENNYKTTPPVLDSDGSFFLYSKLTVDKSRWQQGNVFSCSVMHEALHNHYTQKSLSLSPGGGGGSGGGGSGGGGSGGGGSDIQMTQSPSSLSASVGDRVTITCHASQNINVWLSWYQQKPGKAPKLLIYKASNLHTGVPSRFTGSGSGTDFTFTISSLQPEDIATYYCQQGQTYPYTFGQGTKLEIKGGGGSGGGGSGGGGSGGGGSQVQLVQSGAEVKKPGASVKLSCKASGYIFTRYYMYWVKQRPGQGLEWIGEINPNNGGTKFNEKFKNRATLTVDKSISTAYMELSRLRSDDTAVYYCSREDDYDGTPFAMDYWGQGTLVTVSS
light: B5 light
B8: bsAb032 (bispecific antibody)
heavy: not shown
light: B5 light
B9: bsAb021 (bispecific antibody)
heavy: QVQLVQSGAEVKKPGASVKLSCKASGYIFTRYYMYWVKQRPGQGLEWIGEINPNNGGTKFNEKFKNRATLTVDKSISTAYMELSRLRSDDTAVYYCSREDDYDGTPFAMDYWGQGTLVTVSSGGGGSGGGGSGGGGSGGGGSDIQMTQSPSSLSASVGDRVTITCHASQNINVWLSWYQQKPGKAPKLLIYKASNLHTGVPSRFTGSGSGTDFTFTISSLQPEDIATYYCQQGQTYPYTFGQGTKLEIKGGGGSGGGGSGGGGSGGGGSQVQLVQSGVEVKKPGASVKVSCKASGYTFTNYYMYWVRQAPGQGLEWMGGINPSNGGTNFNEKFKNRVTLTTDSSTTTAYMELKSLQFDDTAVYYCARRDYRFDMGFDYWGQGTTVTVSSASTKGPSVFPLAPSSKSTSGGTAALGCLVKDYFPEPVTVSWNSGALTSGVHTFPAVLQSSGLYSLSSVVTVPSSSLGTQTYICNVNHKPSNTKVDKRVEPKSCDKTHTCPPCPAPEFEGGPSVFLFPPKPKDTLMISRTPEVTCVVVDVSHEDPEVKFNWYVDGVEVHNAKTKPREEQYNSTYRVVSVLTVLHQDWLNGKEYKCKVSNKALPASIEKTISKAKGQPREPQVYTLPPSREEMTKNQVSLTCLVKGFYPSDIAVEWESNGQPENNYKTTPPVLDSDGSFFLYSKLTVDKSRWQQGNVFSCSVMHEALHNHYTQKSLSLSPG
light: B5 light
B10: bsAb068 (bispecific antibody)
heavy: QVQLVQSGVEVKKPGASVKVSCKASGYTFTNYYMYWVRQAPGQGLEWMGGINPSNGGTNFNEKFKNRVTLTTDSSTTTAYMELKSLQFDDTAVYYCARRDYRFDMGFDYWGQGTTVTVSSASTKGPSVFPLAPSSKSTSGGTAALGCLVKDYFPEPVTVSWNSGALTSGVHTFPAVLQSSGLYSLSSVVTVPSSSLGTQTYICNVNHKPSNTKVDKRVEPKSCDKTHTCPPCPAPEFEGGPSVFLFPPKPKDTLMISRTPEVTCVVVDVSHEDPEVKFNWYVDGVEVHNAKTKPREEQYNSTYRVVSVLTVLHQDWLNGKEYKCKVSNKALPASIEKTISKAKGQPREPQVYTLPPSREEMTKNQVSLTCLVKGFYPSDIAVEWESNGQPENNYKTTPPVLDSDGSFFLYSKLTVDKSRWQQGNVFSCSVMHEALHNHYTQKSLSLSPG
light: not shown
B11: bsAb009 (bispecific antibody)
heavy: B10 heavy
light: EIVLTQSPATLSLSPGERATLSCRASKGVSTSGYSYLHWYQQKPGQAPRLLIYLASYLESGVPARFSGSGSGTDFTLTISSLEPEDFAVYYCQHSRDLPLTFGGGTKVEIKRTVAAPSVFIFPPSDEQLKSGTASVVCLLNNFYPREAKVQWKVDNALQSGNSQESVTEQDSKDSTYSLSSTLTLSKADYEKHKVYACEVTHQGLSSPVTKSFNRGECGGGGSGGGGSGGGGSGGGGSQVQLVQSGAEVKKPGASVKLSCKASGYIFTRYYMYWVKQRPGQGLEWIGEINPNNGGTKFNEKFKNRATLTVDKSISTAYMELSRLRSDDTAVYYCSREDDYDGTPFAMDYWGQGTLVTVSSGGGGSGGGGSGGGGSGGGGSDIQMTQSPSSLSASVGDRVTITCHASQNINVWLSWYQQKPGKAPKLLIYKASNLHTGVPSRFTGSGSGTDFTFTISSLQPEDIATYYCQQGQTYPYTFGQGTKLEIK

Molecular target: BTN3A expressed at the cell surface (human), O00481
Sequence (O00481 30-513): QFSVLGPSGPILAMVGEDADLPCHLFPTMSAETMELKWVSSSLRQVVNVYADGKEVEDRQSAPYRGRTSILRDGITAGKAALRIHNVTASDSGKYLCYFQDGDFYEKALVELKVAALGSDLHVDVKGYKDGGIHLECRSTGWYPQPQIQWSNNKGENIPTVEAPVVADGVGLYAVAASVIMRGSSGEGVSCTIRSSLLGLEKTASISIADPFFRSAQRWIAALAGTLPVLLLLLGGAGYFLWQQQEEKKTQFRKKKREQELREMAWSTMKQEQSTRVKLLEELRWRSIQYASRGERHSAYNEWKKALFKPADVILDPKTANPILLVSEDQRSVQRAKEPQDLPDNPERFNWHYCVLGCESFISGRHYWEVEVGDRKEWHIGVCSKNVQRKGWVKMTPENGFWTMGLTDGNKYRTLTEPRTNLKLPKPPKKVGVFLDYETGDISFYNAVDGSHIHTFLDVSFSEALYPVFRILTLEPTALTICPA
Experiment: cell-based or functional assay

Row | Jurkat-Vy9Vo2 TCR MOP activation at 0.5 nM (fold-change to medium) | Jurkat-Vy9Vo2 TCR MOP activation at 5 nM (fold-change to medium) | Binder
1 | 4.2 | 4.5 | B1
2 | 7 | 10 | B2
3 | 3.7 | 5.4 | B3
4 | 4.3 | 5.8 | B4
5 | 1.8 | 2.2 | B5
6 | 1 | 1 | B6
7 | 1 | 1 | B7
8 | 0.9 | 1 | B8
9 | 1.6 | 1.5 | B9
10 | 1.4 | 1.6 | B10
11 | 1 | 0.8 | B11
